# How the values were obtained:
# [1] = Stability of released glucagon (far-UV CD and RP-HPLC); type: physicochemical
# Protocol: The effect of glucose concentration on microgel size was characterized using dynamic light scattering (DLS, Malvern Zetasizer Nano-ZS). Adjustment of pH was made using NaOH or HCl. Dimensions and surface morphology of freeze-dried microgels were examined by scanning electron microscopy (SEM/EDX) at an acceleration voltage of 20 kV. Transmission electron microscopy (TEM) images were performed on a Hitachi H-7500 transmission electron microscope operated at 80 kV. In addition, Rhodamine-B (Rh-B) labelling was applied to track the distribution of microgels within the microneedle array. The microgels were first immersed in 10 μg/mL of Rh-B for 12 hours at room temperature and then washed with DI-water three times. […] Glucagon and its degradation products were assayed using a reversed-phase high-performance liquid chromatography (RP-HPLC) system (Waters, MA, USA) equipped with a binary pump, autosampler, and UV detector (2899 Photodiode Detector Array, Waters, MA, USA). ^1H-NMR, and ^11B-NMR spectra were recorded in dimethyl sulfoxide (DMSO) and deuterium oxide (D2O) with a Bruker AM 400 spectrometer (400 MHz). […] Glucagon released from microgels or MNs were collected and measured using a CD spectropolarimeter (Jasco J-810, MD, USA) equipped with a Peltier temperature module set to 25° C. […]
# [2] = system: STZ-induced type 1 diabetic male Sprague Dawley rats; assay: Antidiabetic effect of S.C. microgel injection in type 1 diabetic rats; type: in vivo, rat
# Protocol: Male Sprague Dawley rats (Charles River) were treated with 65 mg/kg streptozotocin (STZ) to induce type 1 diabetes. The rats receiving STZ were carefully monitored for 1 week during which time the blood sugar was measured in 2 day intervals using a glucose meter (OneTouch® Ultra®, LifeScan, Inc., USA). Diabetic rats with blood sugar stabilized above 17 mmol/L were selected for the study. All rats were fasted for 4 hours prior to the experiment to eliminate the possible confounding effect of food (BERNICE […], 1965). The blood glucose levels of the diabetic rats were monitored every 15 minutes throughout the experiment. […] The blood glucose levels were measured every 15 min after injection and stopped whenever they were above/bellow euglycemia threshold.
substance,measurement,setting,value
glucagon,"secondary structure of released glucagon (far-UV CD, peaks at 208 and 222 nm)","[1]; released at 50 mg/dL glucose, compared to fresh native glucagon",preserved
same,degradation products of released glucagon (RP-HPLC),"[1]; released from composite patch, compared to fresh glucagon",no detectable degradants
insulin,time after which blood glucose increased back to hyperglycemia,[2]; 0.5 IU/kg insulin S.C.,3 h
same,occurrence of hypoglycemia,[2]; 1 IU/kg insulin S.C.,fell even further below the hypoglycemic threshold
same,time to reach euglycemia post-injection,[2]; 1 IU/kg insulin S.C.,≤ 45 min

# — US12447133B2, “Composition and device for preventing hypoglycemia and use thereof” (THE GOVERNING COUNCIL OF THE UNIVERSITY OF TORONTO, priority 2018, dated 2025)
